{"source": "paper PMC8406365", "about": "(Acta Biochimica et Biophysica Sinica, 2021)", "biological_target": "SENP3 (endogenous, LO2 hepatocytes) (human (endogenous in LO2), UniProt Q9H4L4 1-574)", "sequence (Q9H4L4 whole entry)": "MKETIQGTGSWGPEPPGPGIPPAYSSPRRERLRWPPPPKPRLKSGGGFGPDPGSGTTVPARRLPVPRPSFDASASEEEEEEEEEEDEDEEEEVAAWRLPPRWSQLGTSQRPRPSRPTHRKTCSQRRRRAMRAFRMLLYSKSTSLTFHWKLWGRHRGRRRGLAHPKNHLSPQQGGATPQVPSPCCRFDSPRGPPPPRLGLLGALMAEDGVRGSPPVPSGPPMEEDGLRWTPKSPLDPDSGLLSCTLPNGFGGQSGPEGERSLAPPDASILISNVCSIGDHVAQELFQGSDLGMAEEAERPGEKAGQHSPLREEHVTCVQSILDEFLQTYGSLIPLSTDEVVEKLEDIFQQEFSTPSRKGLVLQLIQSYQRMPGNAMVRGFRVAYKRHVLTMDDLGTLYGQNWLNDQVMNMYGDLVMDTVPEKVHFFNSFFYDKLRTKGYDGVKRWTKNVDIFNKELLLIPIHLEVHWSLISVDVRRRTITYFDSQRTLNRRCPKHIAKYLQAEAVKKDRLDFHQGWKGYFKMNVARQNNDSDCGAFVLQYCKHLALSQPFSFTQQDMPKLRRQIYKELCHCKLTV", "test": "FRET or BRET", "data": [{"binder": "ATP synthase subunit (ATP5F1A) (natural protein, human (endogenous in LO2), UniProt P25705 44-553, looked up) QKTGTAEMSSILEERILGADTSVDLEETGRVLSIGDGIARVHGLRNVQAEEMVEFSSGLKGMSLNLEPDNVGVVVFGNDKLIKEGDIVKRTGAIVDVPVGEELLGRVVDALGNAIDGKGPIGSKTRRRVGLKAPGIIPRISVREPMQTGIKAVDSLVPIGRGQRELIIGDRQTGKTSIAIDTIINQKRFNDGSDEKKKLYCIYVAIGQKRSTVAQLVKRLTDADAMKYTIVVSATASDAAPLQYLAPYSGCSMGEYFRDNGKHALIIYDDLSKQAVAYRQMSLLLRRPPGREAYPGDVFYLHSRLLERAAKMNDAFGGGSLTALPVIETQAGDVSAYIPTNVISITDGQIFLETELFYKGIRPAINVGLSVSRVGSAAQTRAMKQVAGTMKLELAQYREVAAFAQFGSDLDAATQQLLSRGVRLTELLKQGQYSPMAIEEQVAVIYAGVRGYLDKLEPSKITKFENAFLSHVVSQHQALLGTIRADGKISEQSDAKLKEIVTNFLAGFEA", "values": [{"measurement": "FRET efficiency", "result": "~25", "unit": "%"}]}]}
